T1: FimA (Salmonella Type-1 fimbrial protein, A chain), recombinant (Salmonella (serovar ), UniProt P37921 23-185)
T1 sequence: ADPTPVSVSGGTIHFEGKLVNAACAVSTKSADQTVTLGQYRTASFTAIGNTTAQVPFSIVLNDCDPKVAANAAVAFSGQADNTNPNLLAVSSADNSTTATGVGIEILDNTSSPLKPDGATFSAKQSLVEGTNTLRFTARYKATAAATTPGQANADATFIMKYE

T2: PrgI (Salmonella Type III secretion needle protein), recombinant (Salmonella typhimurium (strain LT2) as …, UniProt P41784 1-80)
T2 sequence: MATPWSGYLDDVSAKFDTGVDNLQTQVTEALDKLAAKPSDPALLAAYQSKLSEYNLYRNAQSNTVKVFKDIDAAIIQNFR


target: T1, FimA (Salmonella Type-1 fimbrial …); assay: phage ELISA, antigen-coated wells, anti-M13-HRP, A405

Binder | binding over background (PBS-only wells) [fold]
NBX0200 (VHH, also called Clone 97) VHH: QVQLQESGGGLVQAGGSLRLSCAASGRTSSSAYTAWFRQAPGNEREFVASISWSGTTTYYADPVKGRFTISRDNAKNTVYLQMNSLKPDDTAVYYCAADRRSTIGSPRQQYAYWGQGTQVTVSS | ≥ 4
NBX0203 (VHH, also called Clone 100) VHH: QVQLQQSGGGLVQAGGSLRLSCAASGRTSPSSYTAWFRQAPGNEREFVASISWSGTTTYYADPVKGRFTISRDNAKNTVYLQMNSLKPDDTAVYYCAADRRSTIGSPRQQYAYWGQGTQVTVSS | ≥ 4
NBX0202 (VHH, also called Clone 99) VHH: QVQLQESGGGLVQAGGSLRLSCAASGRTSSSAYTAWFRQAPGNEREFVASISWSGTTTYHAHPVKGRFTIFRDNAKNTVYLQMNSLKPDDTGVYYCAADRRSTIGTPREQYAYWGQGTQVTVSS | ≥ 4
NBX0201 (VHH, also called Clone 98) VHH: QVQLQESGGGLVQAGGSLRLSCAASTRTSSSSYTAWFRQAPGNEREFVASISYSGTTTYYADPVKGRFTISRDSAKNTVYLQMNSLKPDDTAVYYCAADRRSTIGSPRQQYAYWGQGTQVTVSS | ≥ 4
NBX0100 (VHH, also called Clone 92) VHH: QVKLEESGGGLVQAGGSLRLSCAVSGSIFSTNLMGWYRQAPGKQRGFVAHITSGGNTDYLDSVKGRFTISRDNAKNTVYLQMNSLKPEDTAVYYCAAQTLGSSYYDAWGQGTQVTVSS | ≥ 4

target: T2, PrgI (Salmonella Type III secretion …); assay: as above

Binder | binding over background (PBS-only wells) [fold]
NBX0212 (VHH, also called Clone 109) VHH: QVQLQESGGGLVQAGGSLRLSCAASTSILSINAMGWNREAPGNRREMVAIIAPGGTTNYADSVKGRFTITRDISKNTIYLQMNNLKPEDTGVYYCAADPGGQSPLSWGQGTQVTVSL | ≥ 4
NBX0104 (VHH, also called Clone 93) VHH: QVQLVESGGGLVQPGGSLRLSCAASGVAFNSRIMGWYRQAPGKQRELVALITSGGSTNYADSVKGRFTISRNNAKKTVYLQMNSLKPEDTAVYYCNIRNYWGQGTQVTVSS | ≥ 4
NBX0108 (VHH, also called Clone 95) VHH: QVKLEESGGGLVRAGGSLTLSCGASRGTFRTYSMGWFRQAPGKEREFVAAITWNGKYTYYGDSVQGRFTISKDNAKNTVSLQMNRLNPEDTAVYYCAANPIPTAQPPGIMAARSYVHWGQGTQVTVSS | ≥ 4
NBX0105 (VHH, also called Clone 94) VHH: QVQLVESGGGLVQAGGSLRLSCAASGRTFNTYYMGWFRQAPGKEREFVSAIRWSDGGTWYADSMKGRFTISRDNAKNTGYLQMNSLKPEDTAIYYCNANVYDGNRWRTYWGQGTQVTVSS | ≥ 4
NBX0214 (VHH, also called Clone 111) VHH: QVQLQESGGGLVQAGGSLRLSCAASGSISSITAMGWNRQAPGNQQRDLVAVIARGGMTKYADSVQGRFTISRDIAKNTVYLQMNSLKPEDTGVYYCALDNGDPRLHWGQGIQVTVSS | ≥ 4
NBX0217 (VHH, also called Clone 114) VHH: QVQLQESGGGLVQAGGSLRLSCAASGSISSITAMGWNRQAPGNQQRDLVAVIARGGMTKYADSVQGRFTISRDIANNTVYLQMNSLKPEDTGVYYCALYNGDPRLHWGQGIQVTVSS | ≥ 4
NBX0213 (VHH, also called Clone 110) VHH: QVQLQESGGGSVQAGGSLRLSCAASGSISSITAMGWNRQAPGNQRELVAVIARGGMIKYDDSVKGRFTISRDIAKNTVFLQMDSLKPEDTGVYYCAVDNGDPRLHWGQGIQVTVSS | ≥ 4
NBX0216 (VHH, also called Clone 113) VHH: QVQLQESGGGLVQAGGSLRLSCAASTSILSIDAMGWNRQAPGNQRRDLVAVIARGGSTQYADSVKGRFTITRDISKNTIYLQMNSLKPEYTGVYYCAADPGGASGLSWGQGTQVTVSL | ≥ 4

From US20190202896A1 (NOVOBIND LIVESTOCK THERAPEUTICS, published 2019)
